# Target: cathepsin B
substance,measurement,value
surugamide I (13) (peptide),IC50 of cathepsin B inhibition (fluorescence-based kit assay),9 µM

# From patent publication US20200079823A1
